According to US20030069395A1 (DYAX, published 2003):

Assays:
rhesus serum albumin [1] = target: T1, rhesus serum albumin (Rhesus, UniProt Q28522 17-600); assay: fluorescence anisotropy; 3 mM phosphate, pH 6.2, 0 M NaCl
pig serum albumin [2] = target: T2, pig serum albumin (Pig, UniProt P08835 25-607); assay: as above
[3] = target: T3, bovine serum albumin (BSA) (Bovine, UniProt P02769 25-607); assay: as above
[4] = target: T4, human serum albumin (HSA) (human, UniProt P02768 25-609); assay: as above
T4 construct: also called caprylate-biotinylated-HSA

goat serum albumin (GSA) [5] = target: T5, goat serum albumin (GSA) (Goat); assay: as above
T5 sequence (P85295 whole entry, looked up): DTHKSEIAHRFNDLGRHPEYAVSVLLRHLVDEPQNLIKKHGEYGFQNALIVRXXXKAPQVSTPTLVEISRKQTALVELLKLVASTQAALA

[6] = target: T6, murine serum albumin (MSA) (Mouse, UniProt P07724 25-608); assay: as above
T6 construct: also called mouse serum albumin; Mouse
T6 sequence (P07724 25-608 limits assumed): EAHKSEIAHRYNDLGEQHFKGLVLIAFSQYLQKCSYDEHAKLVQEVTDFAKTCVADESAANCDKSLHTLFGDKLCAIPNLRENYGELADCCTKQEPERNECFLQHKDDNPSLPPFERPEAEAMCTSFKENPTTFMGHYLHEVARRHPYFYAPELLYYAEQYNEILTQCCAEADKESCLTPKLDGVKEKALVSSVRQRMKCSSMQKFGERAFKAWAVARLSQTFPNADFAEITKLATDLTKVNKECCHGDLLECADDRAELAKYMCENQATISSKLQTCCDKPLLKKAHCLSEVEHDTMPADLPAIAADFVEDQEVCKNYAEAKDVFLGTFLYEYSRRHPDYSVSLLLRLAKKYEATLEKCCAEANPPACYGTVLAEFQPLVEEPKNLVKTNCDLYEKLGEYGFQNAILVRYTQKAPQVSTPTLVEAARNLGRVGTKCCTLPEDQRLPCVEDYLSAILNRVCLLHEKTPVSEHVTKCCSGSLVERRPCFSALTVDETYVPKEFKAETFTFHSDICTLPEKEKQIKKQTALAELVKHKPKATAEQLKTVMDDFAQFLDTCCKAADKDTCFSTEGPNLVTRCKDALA

[7] = target: T4, human serum albumin (HSA); assay: fluorescence anisotropy; pH 7.4, 0.14 M NaCl, 0.1% caprylate
Description: (§1) Affinity determinations were made by first labeling polypeptides on the C-terminal end with NHS-fluorescein. Fluorescence anisotropy measurements were performed in 384-well microplates in a volume of 10 μl in binding buffer using a Tecan Polarion fluorescence polarization plate reader. The concentration of fluorescein labeled peptide was held constant (20 nM), and the concentration of HSA was varied. For pH 6.2, 7.1, and 7.4 binding conditions, a 3 mM phosphate, 0.01% Tween-20 buffer was used. For pH 9.1 binding conditions, a 3 mM sodium bicarbonate buffer, 0.01% Tween-20 nonionic detergent buffer was used. Once NaCl was added to any of these buffers, their pH was adjusted again to achieve the original pH. The binding mixtures were equilibrated for 10 minutes in the microplate at 30° C. prior to performing the measurement. The observed change in anisotropy was fit to the equation below via nonlinear regression to obtain the apparent KD. This equation assumes that the peptide and HSA form a reversible complex with 1:1 stoichiometry.
Once all the positive phage isolates were sequenced, peptides corresponding to the display peptide were synthesized. A small amount of constant phage sequence surrounding each varied amino acid sequence region was retained and either a -GGGK-NH₂ (SEQ ID NO: 24) amino acid sequence or -X-K-NH₂ C-terminal tail was added to each peptide, where X is 6-aminohexanoic acid and K-NH₂ is an amidated terminal lysine residue. The constant phage sequence was retained because these residues can often play a role in target binding. To determine its affinity for HSA , each peptide was labeled with fluorescein on the C-terminal lysine side chain.

[8] = target: T4, human serum albumin (HSA); assay: fluorescence anisotropy; pH 6.2, 0.14 M NaCl, no caprylate
Description: as §1

chicken ovalbumin [9] = target: T7, chicken ovalbumin (Chicken, UniProt P01012 2-386); assay: fluorescence anisotropy; PBS, pH 7.4, 0.14 M NaCl; negative control
T7 construct: Negative control; also called Chicken (egg)
T7 sequence (looked up): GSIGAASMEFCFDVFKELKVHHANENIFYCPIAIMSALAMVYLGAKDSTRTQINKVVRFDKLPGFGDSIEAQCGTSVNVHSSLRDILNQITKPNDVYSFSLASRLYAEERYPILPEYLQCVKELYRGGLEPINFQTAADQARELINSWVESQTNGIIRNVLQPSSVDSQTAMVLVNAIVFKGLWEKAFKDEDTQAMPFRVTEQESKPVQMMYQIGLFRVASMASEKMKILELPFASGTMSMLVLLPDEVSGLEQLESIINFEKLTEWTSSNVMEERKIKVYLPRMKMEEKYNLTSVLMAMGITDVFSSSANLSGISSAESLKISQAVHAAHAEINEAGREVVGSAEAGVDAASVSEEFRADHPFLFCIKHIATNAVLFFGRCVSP

[10] = target: T4, human serum albumin (HSA); assay: fluorescence anisotropy; pH 6.2, no NaCl, no caprylate
Description: as §1

[11] = target: T4, human serum albumin (HSA); assay: fluorescence anisotropy; pH 7.4, 0.14 M NaCl, no caprylate
Description: as §1

rhesus serum albumin [12] = target: T1, rhesus serum albumin; assay: fluorescence anisotropy; PBS, pH 7.4, 0.14 M NaCl
pig serum albumin [13] = target: T2, pig serum albumin; assay: fluorescence anisotropy; PBS, pH 7.4, 0.14 M NaCl
[14] = target: T3, bovine serum albumin (BSA); assay: fluorescence anisotropy; PBS, pH 7.4, 0.14 M NaCl
[15] = target: T4, human serum albumin (HSA); assay: fluorescence anisotropy; PBS, pH 7.4, 0.14 M NaCl
goat serum albumin (GSA) [16] = target: T5, goat serum albumin (GSA); assay: fluorescence anisotropy; PBS, pH 7.4, 0.14 M NaCl
rat serum albumin = rat serum albumin (Rat, UniProt P02770 25-608); assay: fluorescence anisotropy; PBS, pH 7.4, 0.14 M NaCl
Sequence of rat serum albumin (P02770 25-608 limits assumed): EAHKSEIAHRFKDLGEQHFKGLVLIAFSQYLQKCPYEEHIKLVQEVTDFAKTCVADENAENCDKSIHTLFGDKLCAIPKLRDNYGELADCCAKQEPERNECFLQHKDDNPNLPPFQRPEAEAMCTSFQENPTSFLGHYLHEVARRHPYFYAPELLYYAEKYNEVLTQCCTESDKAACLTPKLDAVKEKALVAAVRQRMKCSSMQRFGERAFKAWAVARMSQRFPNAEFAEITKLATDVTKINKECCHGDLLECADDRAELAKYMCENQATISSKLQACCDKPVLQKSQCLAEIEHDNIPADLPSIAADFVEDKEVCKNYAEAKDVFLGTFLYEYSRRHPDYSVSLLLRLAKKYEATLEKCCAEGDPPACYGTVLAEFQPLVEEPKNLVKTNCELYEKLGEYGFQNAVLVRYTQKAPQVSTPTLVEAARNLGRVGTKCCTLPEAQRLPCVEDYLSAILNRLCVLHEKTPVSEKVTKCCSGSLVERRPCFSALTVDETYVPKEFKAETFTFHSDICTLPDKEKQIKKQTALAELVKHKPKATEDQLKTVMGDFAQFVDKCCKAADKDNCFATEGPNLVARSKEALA

[17] = target: T6, murine serum albumin (MSA); assay: fluorescence anisotropy; PBS, pH 7.4, 0.14 M NaCl
[18] = target: T4, human serum albumin (HSA); assay: fluorescence anisotropy; pH 6.2, 10 mM NaCl
Description: as §1

chicken ovalbumin [19] = target: T7, chicken ovalbumin; assay: fluorescence anisotropy; 3 mM phosphate, pH 6.2, 0 M NaCl; negative control

T1 sequence (Q28522 17-600 limits assumed): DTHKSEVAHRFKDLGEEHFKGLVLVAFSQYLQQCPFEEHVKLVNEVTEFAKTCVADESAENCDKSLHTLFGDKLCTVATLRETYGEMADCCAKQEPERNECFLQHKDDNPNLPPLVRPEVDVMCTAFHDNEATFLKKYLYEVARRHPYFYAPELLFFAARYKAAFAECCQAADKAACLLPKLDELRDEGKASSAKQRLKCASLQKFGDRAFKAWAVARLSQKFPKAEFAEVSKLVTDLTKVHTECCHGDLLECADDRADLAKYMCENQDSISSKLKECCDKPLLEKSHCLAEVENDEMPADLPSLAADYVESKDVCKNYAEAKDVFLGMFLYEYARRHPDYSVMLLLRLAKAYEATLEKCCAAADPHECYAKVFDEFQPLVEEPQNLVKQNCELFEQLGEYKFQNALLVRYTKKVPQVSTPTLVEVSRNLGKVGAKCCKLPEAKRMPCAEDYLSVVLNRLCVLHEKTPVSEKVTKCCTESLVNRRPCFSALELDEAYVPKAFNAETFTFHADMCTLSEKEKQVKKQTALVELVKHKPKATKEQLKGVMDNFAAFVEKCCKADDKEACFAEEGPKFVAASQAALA
T3 sequence (P02769 25-607 limits assumed): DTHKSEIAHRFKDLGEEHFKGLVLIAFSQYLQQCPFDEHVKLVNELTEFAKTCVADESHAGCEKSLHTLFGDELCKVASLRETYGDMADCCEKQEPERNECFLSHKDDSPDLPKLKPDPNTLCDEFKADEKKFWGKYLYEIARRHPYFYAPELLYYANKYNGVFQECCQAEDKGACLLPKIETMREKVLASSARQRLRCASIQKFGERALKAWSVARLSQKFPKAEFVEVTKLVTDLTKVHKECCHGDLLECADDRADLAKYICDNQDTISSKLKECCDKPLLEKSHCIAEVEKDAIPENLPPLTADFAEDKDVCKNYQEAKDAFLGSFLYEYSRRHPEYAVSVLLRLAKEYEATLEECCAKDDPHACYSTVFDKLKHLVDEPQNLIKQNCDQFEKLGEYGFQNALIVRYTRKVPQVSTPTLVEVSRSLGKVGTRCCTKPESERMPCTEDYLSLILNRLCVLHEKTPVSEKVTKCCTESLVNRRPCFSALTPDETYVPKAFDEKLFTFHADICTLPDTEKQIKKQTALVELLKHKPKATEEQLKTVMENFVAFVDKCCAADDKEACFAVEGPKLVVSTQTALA
T2 sequence (P08835 25-607 limits assumed): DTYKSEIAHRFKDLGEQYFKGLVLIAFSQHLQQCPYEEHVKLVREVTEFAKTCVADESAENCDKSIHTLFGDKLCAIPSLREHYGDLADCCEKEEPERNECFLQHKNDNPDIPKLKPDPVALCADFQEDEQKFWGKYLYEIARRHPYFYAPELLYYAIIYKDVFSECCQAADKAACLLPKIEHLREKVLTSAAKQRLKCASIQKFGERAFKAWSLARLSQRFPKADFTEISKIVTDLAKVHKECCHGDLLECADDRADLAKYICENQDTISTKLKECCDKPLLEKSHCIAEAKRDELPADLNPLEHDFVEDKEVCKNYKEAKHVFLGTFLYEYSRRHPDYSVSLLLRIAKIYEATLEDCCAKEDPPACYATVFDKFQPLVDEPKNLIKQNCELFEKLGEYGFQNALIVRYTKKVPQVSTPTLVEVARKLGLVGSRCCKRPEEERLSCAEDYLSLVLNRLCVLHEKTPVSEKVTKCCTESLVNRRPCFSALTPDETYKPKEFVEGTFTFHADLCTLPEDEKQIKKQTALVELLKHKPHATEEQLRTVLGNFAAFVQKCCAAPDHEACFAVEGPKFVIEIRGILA

B1: DX-321, Ac-AEGTGDRNMCKFSWIRSPAFCARADPE-X-K-NH2 (peptide)
peptide: AEGTGDRNMCKFSWIRSPAFCARADPEXK
modifications: N-terminal acetyl; X = 6-aminohexanoic acid before the C-terminal Lys; C-terminal amide; C-terminal Lys side chain carries fluorescein (anisotropy) or is coupled to NHS-Sepharose
How did the Kd (rhesus serum albumin [1]) turn out when B1 was run?
The Kd was 38 µM.

What about the Kd (pig serum albumin [2]) of the same binder?
Its Kd is 21 µM.

And the Kd [3]?
The Kd was 21 µM.

What about the Kd [4] of the same binder?
The Kd was 0.9 µM.

What about the Kd (goat serum albumin (GSA) [5]) of the same binder?
Its Kd is 95 µM.

And the Kd [6]?
The Kd was > 200 µM.

What about the Kd [7] of the same binder?
Its Kd is 75 µM.

And the Kd [8]?
The Kd was 9 µM.

What about the Kd (chicken ovalbumin [9]) of the same binder?
The Kd was > 200 µM.

And the Kd [10]?
The Kd was 0.9 µM.

And the Kd [11]?
The Kd was 84 µM.

What about the Kd (rhesus serum albumin [12]) of the same binder?
Its Kd is 82 µM.

And the Kd (pig serum albumin [13])?
Its Kd is > 200 µM.

What about the Kd [14] of the same binder?
Its Kd is > 200 µM.

What about the Kd [15] of the same binder?
Its Kd is 84 µM.

And the Kd (goat serum albumin (GSA) [16])?
The Kd was 83 µM.

What about the Kd (rat serum albumin) of the same binder?
The Kd was 117 µM.

And the Kd [17]?
Its Kd is > 200 µM.

What about the Kd [18] of the same binder?
Its Kd is ~9 µM.

What about the Kd (chicken ovalbumin [19]) of the same binder?
The Kd was > 200 µM.
